# Measurements as given in patent US20160122418A1 (ARIDIS PHARMACEUTICALS, published 2016).
# T1: F protein of palivizumab-resistant clinical RSV isolate #20 (RSV clinical isolate #20, UniProt P11209 26-574)
# T1 chain: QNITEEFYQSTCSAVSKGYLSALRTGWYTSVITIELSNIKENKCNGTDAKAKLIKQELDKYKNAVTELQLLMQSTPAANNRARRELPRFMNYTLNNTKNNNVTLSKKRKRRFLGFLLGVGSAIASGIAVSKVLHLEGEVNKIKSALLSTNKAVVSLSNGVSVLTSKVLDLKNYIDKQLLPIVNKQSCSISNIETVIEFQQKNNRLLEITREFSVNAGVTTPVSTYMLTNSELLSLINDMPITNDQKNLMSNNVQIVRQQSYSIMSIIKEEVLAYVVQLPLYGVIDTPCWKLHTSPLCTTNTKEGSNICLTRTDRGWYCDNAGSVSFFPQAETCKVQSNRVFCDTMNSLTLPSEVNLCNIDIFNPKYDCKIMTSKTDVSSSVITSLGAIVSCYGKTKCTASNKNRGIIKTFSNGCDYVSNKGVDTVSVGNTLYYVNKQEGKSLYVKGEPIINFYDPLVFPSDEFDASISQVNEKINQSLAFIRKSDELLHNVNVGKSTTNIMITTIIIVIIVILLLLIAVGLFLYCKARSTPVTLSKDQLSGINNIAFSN
# What was measured:
# [1] = target: T1, F protein of palivizumab-resistant …; assay: cell-based or functional assay
# [2] = target: F protein of clinical RSV isolate #1 (RSV clinical isolate #1); assay: cell-based or functional assay
# [3] = target: T2, Human RSV (A2) Fusion glycoprotein RSV F protein, Sino Biological Inc. (Human RSV (A2), UniProt P03420 26-529); assay: ELISA, serial dilutions of purified AR201 on plates coated 'as described above' (RSV-EIA antigen by the legend of FIG. 6, or purified F protein); anti-human IgG-HRP
# T2 construct: Bought protein; also called purified RSV F protein; recombinant human RSV F protein
# [4] = target: T2, Human RSV (A2) Fusion glycoprotein RSV …; assay: SPR, Biacore 2000, F protein amine-coupled to CM5 chip, antibody as analyte, Langmuir 1:1 fit
# [5] = target: T3, F protein on intact RSV particles (Example 10, strain or isolate not stated) (RSV, strain ); assay: competition ELISA; RSV particles pre-incubated with inhibiting mAb at 20 µg/mL; competitor (coating mAb): AR201
# T3 construct: also called RSV viral particles
# [6] = target: T3, F protein on intact RSV particles …; assay: competition ELISA; RSV particles pre-incubated with inhibiting mAb at 20 µg/mL; competitor (coating mAb): palivizumab
# Experimental: After incubation for one hour at 4° C., plates were washed and polyclonal rabbit-anti-RSV-HRP labeled antisera was added to each well. Bound viral particles were detected by colorimetric measurement. Maximum binding of RSV to the immobilized antibody in the presence of the competitor antibody was determined relative to binding in the presence of the monoclonal human IgG control antibody.
binder,measurement,setting,value
"AR201 (antibody, V domains shown, Recombinant human IgG1 made in HEK293T cells; kappa light chain cloned whole; The claims' numbering is used here; also called KBRV201; human monoclonal antibody AR201) VH: LVQLRESGPGLVKPSQTLSLTCSVSGASINLYDYFWGWIRQAPGRGPEWIGYISGSTYYNPSLKRRATISVDTSKSQFFLELTSVTAADTAVYYCARDVGWGPQYYYGLDVWGQGTTVTVSS VL: DLVLTQSPGTLSLSPGERATLSCRASHSVQSTSLAWYQQKRGQAPRLLIYGGSSRVTGIPDRFSGSGSGTDFTLTISRLEPEDFAVYYCQQSDRSPPITFGQGTRLEMK","IC50 of neutralization, infectivity assay on Hep2 cells",[1],1710 nM
same,"IC50 of neutralization, infectivity assay on Hep2 cells",[2],1700 nM
same,EC50,[3],0.103 nM
same,Kd,[4],0.058 nM
same,koff,[4],2.7e-05 s⁻¹
same,kon,[4],470000 M⁻¹ s⁻¹
same,% binding of RSV to the coating mAb relative to control IgG,[5],22.5%
same,% binding of RSV to the coating mAb relative to control IgG,[6],40.8%
